{"source": "paper PMC5228590", "biological_target": "vimentin (mouse (endogenous in MC-3T3 and in primary calvarial osteoblasts of C57/B6J mice)) (UniProt P20152)", "sequence (P20152 whole entry)": "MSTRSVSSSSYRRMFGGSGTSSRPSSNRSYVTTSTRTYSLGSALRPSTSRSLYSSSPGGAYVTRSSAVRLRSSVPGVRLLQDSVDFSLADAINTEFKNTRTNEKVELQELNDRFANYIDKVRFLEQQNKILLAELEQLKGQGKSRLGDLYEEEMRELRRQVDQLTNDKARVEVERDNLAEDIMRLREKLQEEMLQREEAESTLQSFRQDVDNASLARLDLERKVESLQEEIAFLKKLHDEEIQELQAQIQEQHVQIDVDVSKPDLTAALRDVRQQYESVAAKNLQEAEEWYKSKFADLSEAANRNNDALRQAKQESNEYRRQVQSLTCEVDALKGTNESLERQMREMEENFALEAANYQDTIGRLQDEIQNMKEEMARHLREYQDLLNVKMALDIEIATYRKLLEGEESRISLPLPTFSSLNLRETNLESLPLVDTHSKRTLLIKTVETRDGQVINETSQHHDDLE", "test": "co-IP"}
{"substance": "receptor protein tyrosine phosphatase β, B9EKR1 25-2312", "values": [{"measurement": "fold increase of the association with IGF-I", "result": 6.7, "unit": "fold"}, {"measurement": "percent reduction of the association with the PKCζ pseudosubstrate inhibitor", "result": 62, "unit": "%"}]}
